Experiments:
Tsp-1 [1] = experiment: Western blot of Tsp-1 in lung fibroblasts treated with LN4 CM alone or with STI or Rac1 inhibitor; assay type: cell-based; details: lung fibroblasts (W138 cells), co-treatment with LN4 conditioned media
Excerpt: FIG. 11. Western blot analysis of Tsp-1 and β-actin expression in lung fibroblasts that were untreated (−) or treated with LN4 CM alone or in combination with STI.
FIG. 12. Western blot analysis of Tsp-1 and β-actin expression in lung fibroblasts that were untreated (−) or treated with LN4 CM alone or in combination with Rac1 inhibitor.
Attention was then turned to the mechanism by which PC3M-LN4 cells repress Tsp-1 in the tumor microenvironment. In doing so, LN4 conditioned media (CM) was fractionated over a Cu^2+/heparin sepharose column with increasing concentrations of NaCl. The eluted fractions were used to treat lung fibroblasts and Tsp-1 induction was analyzed by western blot. […] By analyzing the protein content of the eluted fractions by tandem liquid chromatography/mass spectrometry (LC/MS), a protein was identified that was present in the active fractions of LN4 CM, but not present in the adjacent fractions or the fractions eluted with the same NaCl concentrations from PC3 CM. The identified protein was the serine protease PRSS2. […] Finally, the signaling pathway emanating from LRP1 that was mediating the PRSS2-induced repression of Tsp-1 was sought to be delineated. […]

Tsp-1 [2] = experiment: Western blot of Tsp-1/p53 in prostate fibroblasts treated with PC3 conditioned media with or without RAP or PKC inhibitor; assay type: cell-based; details: co-treatment with inhibitor
Excerpt: FIGS. 6A-6B. Western blot analysis of: (FIG. 6A) Tsp-1 and β-actin expression in prostate fibroblasts that were untreated (−) or treated with conditioned media from PC3 cells alone or in combination with RAP, and (FIG. 6B) Tsp-1, p53 and β-actin expression in prostate fibroblasts that were untreated (−) or treated with conditioned media from PC3 cells alone or in combination with the PKC inhibitor Go 6983 (PKCi).
Thus, in order to determine how prosaposin was able to stimulate the expression of Tsp-1 and p53 in tumor-associated fibroblasts, prostate fibroblasts were treated with PC3-conditioned media in the presence and absence of Receptor Associate Protein (RAP), a competitive inhibitor or LRP1 binding. […] To determine whether prosaposin-mediated stimulation of Tsp-1 utilized this pathway, fibroblasts were treated with CM from PC3 cells in the presence and absence of the PKC inhibitor Gö 6983. […] Thus, it is believed that Prosaposin functions via binding to LRP1.

Tsp-1 [3] = experiment: Western blot of Tsp-1 in lung fibroblasts treated with psap peptide alone or with rhRAP or Y27632; assay type: cell-based; details: co-treatment with peptide, rhRAP 25 or 50 μg
Method: FIGS. 8A-8B. Western blot analysis of Tsp-1 and β-actin expression in lung fibroblasts, which were (FIG. 8A) untreated (−) or treated with psap peptide alone or in combination with 25 or 50 μg of rhRAP, and (FIG. 8B) untreated (−) or treated with psap peptide alone or with Y27632.
In order to delineate the pathway leading from LRP1 to Tsp-1 stimulation by prosaposin, two pathways that have been reported to be stimulated by LRP1 under different conditions were chosen to be examined: Rho and Rac.

PRSS2 = PRSS2 (Homo sapiens, UniProt P07478); experiment: Co-immunoprecipitation of LRP1 peptides with PRSS2; assay type: binding
Chain of PRSS2 (P07478 16-247 limits assumed): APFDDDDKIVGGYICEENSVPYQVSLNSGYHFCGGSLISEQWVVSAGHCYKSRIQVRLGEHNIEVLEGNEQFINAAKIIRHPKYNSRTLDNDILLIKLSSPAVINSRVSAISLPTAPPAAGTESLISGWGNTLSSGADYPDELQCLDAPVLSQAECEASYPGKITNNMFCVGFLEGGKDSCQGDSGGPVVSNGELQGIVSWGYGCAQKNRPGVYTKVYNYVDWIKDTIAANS
Method: (§1) FIGS. 16A-16B. Co-immunoprecipitation of LRP1 peptides with PSAP (FIG. 16A) or PRSS2 (FIG. 16B).
(§2) To map the binding sites on LRP1 that binds to prosaposin (PSAP) and/or PRSS2, peptides derived from binding domain I of LRP1 (SEQ ID NOs: 3 and 7-18) were tested for their ability to co-immunoprecipitate with PSAP or PRSS2.

prosaposin (PSAP) = target: T1, prosaposin (PSAP) (Homo sapiens, UniProt P07602); experiment: Co-immunoprecipitation of LRP1 peptides with PSAP; assay type: binding
T1 sequence (P07602 60-524): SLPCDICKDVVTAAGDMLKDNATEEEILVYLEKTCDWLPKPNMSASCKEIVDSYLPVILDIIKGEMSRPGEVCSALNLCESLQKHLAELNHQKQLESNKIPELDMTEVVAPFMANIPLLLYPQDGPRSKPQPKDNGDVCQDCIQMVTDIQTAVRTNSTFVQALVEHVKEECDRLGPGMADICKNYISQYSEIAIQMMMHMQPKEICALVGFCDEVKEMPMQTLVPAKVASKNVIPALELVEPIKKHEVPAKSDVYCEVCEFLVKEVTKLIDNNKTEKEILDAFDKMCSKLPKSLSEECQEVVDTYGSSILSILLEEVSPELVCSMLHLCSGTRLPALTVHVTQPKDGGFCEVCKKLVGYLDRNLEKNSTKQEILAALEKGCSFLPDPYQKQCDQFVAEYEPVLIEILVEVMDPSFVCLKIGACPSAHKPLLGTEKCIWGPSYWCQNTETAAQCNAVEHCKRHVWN
Method: as §1, §2

For CCN(CC)CCCC(C)Nc1nc(C)cc(Nc2ccc3nc(C)cc(N)c3c2)n1 (racemic) [Rac1 inhibitor, reference compound], the “effect on repression of Tsp-1 by LN4 CM” value (Tsp-1 [1]) was “Tsp-1 levels were restored to basal levels”.

For COc1ccc2c(c1)c(C1=C(c3c[nH]c4ccccc34)C(=O)NC1=O)cn2CCCN(C)C [Gö 6983], the “stimulation of Tsp-1 by PC3-conditioned media” value (Tsp-1 [2]) was “abolished the stimulation” and the “stimulation of p53 by PC3-conditioned media” value (Tsp-1 [2]) was “abolished the stimulation”.

For C[C@@H](N)[C@H]1CC[C@H](C(=O)Nc2ccncc2)CC1 [Peptide Y27632, Y27632, reference compound], the “effect on stimulation of Tsp-1 by the psap peptide” value (Tsp-1 [3]) was “completely abrogated”.

FICGCVEGYLLQPDNRSCKAKN [Peptide 13] was tested, and the “binding to PRSS2 (co-immunoprecipitation)” value (PRSS2; listed as peptide 13) was “bind to both PRSS2 and PSAP” and the “binding to PSAP (co-immunoprecipitation)” value (prosaposin (PSAP); listed as peptide 13) was “bind to both PRSS2 and PSAP”.

With YGTCSQLCTNTDGSFICGCVEGYLL [Peptide 12] the “binding to PRSS2 (co-immunoprecipitation)” value (PRSS2; listed as peptide 12) was “bind to both PRSS2 and PSAP” and the “binding to PSAP (co-immunoprecipitation)” value (prosaposin (PSAP); listed as peptide 12) was “bind to both PRSS2 and PSAP”.

B1: RAP: Receptor Associate Protein (RAP), a competitive inhibitor or LRP1 binding (protein, UniProt P30533 35-357, looked up)
Alpha-2-macroglobulin …: YSREKNQPKPSPKRESGEEFRMEKLNQLWEKAQRLHLPPVRLAELHADLKIQERDELAWKKLKLDGLDEDGEKEARLIRNLNVILAKYGLDGKKDARQVTSNSLSGTQEDGLDDPRLEKLWHKAKTSGKFSGEELDKLWREFLHHKEKVHEYNVLLETLSRTEEIHENVISPSDLSDIKGSVLHSRHTELKEKLRSINQGLDRLRRVSHQGYSTEAEFEEPRVIDLWDLAQSANLTDKELEAFREELKHFEAKIEKHNHYQKQLEIAHEKLRHAESVGDGERVSRSREKHALLEGRTKELGYTVKKHLQDLSGRISRARHNEL
With B1 the “stimulation of Tsp-1 by PC3-conditioned media” value (Tsp-1 [2]) was “no longer stimulated Tsp-1” and the “effect on stimulation of Tsp-1 by the psap peptide” value (Tsp-1 [3]) was “blocked the stimulation of Tsp-1 in a dose-dependent fashion”.

B2: STI: serine protease inhibitor able to inhibit all members of the trypsin family (protein, UniProt P01070 25-205, looked up)
Trypsin inhibitor A: DFVLDNEGNPLENGGTYYILSDITAFGGIRAAPTGNERCPLTVVQSRNELDKGIGTIISSPYRIRFIAEGHPLSLKFDSFAVIMLCVGIPTEWSVVEDLPEGPAVKIGENKDAMDGWFRLERVSDDEFNNYKLVFCPQQAEDDKCGDIGISIDHDDGTRRLVVSKNKPLVVQFQKLDKESL
In the case of B2, the “effect on repression of Tsp-1 by LN4 CM” value (Tsp-1 [1]) is reported as “completely abrogated the repression of Tsp-1”.
